This passage reports amyloid nucleation score results from the supplement of paper PMC12042874.

± gives the uncertainty stated by the source.

The series is described as follows: amyloid nucleation score (Sup35N fusion, yeast selection) (log enrichment); library NNK3; higher = more nucleation; inactive = no reads after selection. The method, boiled down: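 The nucleation score is the DiMSum log enrichment of output over input reads, centred on the mode score of non-aggregating sequences. Only sequences with 100 or more input reads were scored, using Illumina sequencing of input and output plasmid inserts. Psi-negative yeast expressing Sup35N fused to peptides of 20 random codons were induced 24 hours with 100 μM copper sulfate and grown 7 days at 30°C on medium lacking adenine and uracil.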

As for SPLLNPGPSWF, the amyloid nucleation score entry is “inactive”.
For SYINHTIPRVLWAITLRYLI, the amyloid nucleation score result is “inactive”.
Consider LCVSCIDSFLGEMVFGLEVI, for which the amyloid nucleation score result is “inactive”.
On to CSIGRSTVDVRWGEGLWNRL, for which the amyloid nucleation score result was “inactive”.
The value for PLGERRTPSYPVASLP was -0.223 ± 0.88; that for PRSCN was “inactive”.
Take RCNHSCFGSIMGCVVLCPGE: the amyloid nucleation score was determined as 1.33 ± 0.13.
The value for NVCRLRIFRSVYLLGYYTST was “inactive”.
The value for PGSHNS was “inactive”; that for FDACLTERVVGISKDTDTSG was “inactive”.
The value for GLSLNYCVLGYGLLTM was “inactive”; that for YYAATPGSYLAGGRWITLF was 0.219 ± 0.47.
For GAYSDMTNKIWVPDNLLLL, the amyloid nucleation score result is “inactive”.
For YLMYSVESVRWTLIE the value was “inactive”.
For IMVRGVRDS, the amyloid nucleation score entry was “inactive”.
For the substance GAQSSTEIAQFYKNGMTSNQ, the amyloid nucleation score entry was “inactive”.
For the substance GSFSMKDTVEVYLTPVWFSR, the amyloid nucleation score entry is “inactive”.
PASLTRDVTMCFQNRWDPLR: the amyloid nucleation score result is “inactive”.
The value for VIKSIWQSYGRKRSYLDMSI was “inactive”; that for CDVSGSCPGRSPARLKEGSR was “inactive”.
For CYSNTLELNDARNCFFNWVR the value was “inactive”.
The value for PELCQCSHCNLLFLWTYYIA was -0.052 ± 0.98; that for KLTNLI was “inactive”; that for NIYYLCSFLSWLTMG was 2.36 ± 0.049.
For the substance HCNFMRFCLRAFSSGMHWLF, the amyloid nucleation score entry was “inactive”.
In the case of LQSSMSIYSQFWSVDSLFYE, the amyloid nucleation score is 0.04 ± 0.66.
For HQSISGWLVRGLTAGSGAVC the value was -0.496 ± 0.96; for ILGRSSISFDLM, “inactive”.
In the case of PYFQFGSSCE, the amyloid nucleation score entry is “inactive”.
The value for STSICIGLLYAFVFEARVLC was “inactive”; that for DFNSVVLPNGV was “inactive”; that for MSSFTAYLLNLR was “inactive”.
For PAELGVVSMCGFLGSAAYQE the value was “inactive”.
As to DVALTWPCYVDTTKCQMIMY, the amyloid nucleation score entry was “inactive”.
For LGKPASSTQSMWNSFVYWLP the value was “inactive”.
The value for GISMRRNFSLNKCCSAQSLF was “inactive”.
For YIYSVEEYSRTSLIDDSVGW the value was “inactive”; for GKLFWFCFRWRYLLTKMVQN, -0.702 ± 1.3; for CSNAHFWVRILKECSLRGSG, 0.587 ± 0.41.
In the case of VGQYDTFGLRHHGGYRMRRG, the amyloid nucleation score entry is “inactive”.
For YILIL the value was “inactive”; for MEWFFVSYPLITGWMGS, “inactive”; for LWFMDFMQSSNSEYQPIVGL, “inactive”.
As for FLFIHKLTCLSLVKWTGFLV, the amyloid nucleation score entry was “inactive”.
For the substance TLVGYLIARLFWR, the amyloid nucleation score result is “inactive”.
The value for MACGGIKTIDTWNGDKFNVQ was “inactive”; that for RWPLMMTFSATIVGYTVVWA was “inactive”.
For AIAWYLLLHSRRMIWCINCP, the amyloid nucleation score entry is “inactive”.
For SCNQKMGHLNFCNFFWTLTV the value was “inactive”; for DLTSIVWSRAYVVSY, “inactive”; for KWVFYYDRRVDSLLARMFLC, “inactive”.
Turning to STLGRKVRFTVVLITIGVLT, the amyloid nucleation score entry is “inactive”.
For SFLAYYMFYM, the amyloid nucleation score result was “inactive”.
The value for SCRWMTMCAINSP was 0.726 ± 0.2; that for CLYKSFLIS was “inactive”; that for EKLVTCKDYFNRASTVTSLG was “inactive”.
Consider MMRNTDK, for which the amyloid nucleation score entry is “inactive”.
For MLDCYWPFPNISIRIWTEWV, the amyloid nucleation score result is “inactive”.
For LQSNFRSPTISGFTTEKVGK the value was “inactive”; for YAEPYRRDVPGSCEYLTMM, “inactive”; for YTFRCIYRADYNTP, “inactive”.
The value for GSWSVRLPLIWTKY was “inactive”; that for FLINPFVWFNNYSFTAF was 0.929 ± 0.14.
For LCRNWVR the value was “inactive”; for FGIKFVIQVDCRHIMHNCVN, 0.077 ± 0.87; for DLWIYIVLYVVAHVALYKDG, “inactive”.
For the substance TSRTGRMEYISRELGQRVWM, the amyloid nucleation score entry was “inactive”.
For TPRKTLSDVLFFRLILS, the amyloid nucleation score result was “inactive”.
For STETYWYSHLIINLVGSWF the value was “inactive”.
On to TWCFDSACNANGTWR, for which the amyloid nucleation score entry is “inactive”.
Consider RACCLFQGDWQERLDSISFA, for which the amyloid nucleation score entry is “inactive”.
In the case of QRIEYA, the amyloid nucleation score entry is “inactive”.
For PNVLLIRVLIERSCKVGWNS the value was “inactive”; for CLCSDTNVK, “inactive”; for VNCQCSSEWCHKNSVYFIRY, 2.59 ± 0.087.
Consider MWVPTRHKGLYFVNVVFACH, for which the amyloid nucleation score result was “inactive”.
As for SSLQHSAW, the amyloid nucleation score result was “inactive”.
Take EHWCFINFLELICYQYLFLP: the amyloid nucleation score result is “inactive”.
In turn, MKYRTALHTF displayed an amyloid nucleation score of -0.961 ± 1.9.
In the case of FFVYVEHRCSYNGRTSDIFY, the amyloid nucleation score was -0.185 ± 0.51.
With WCYDDGQA, the amyloid nucleation score result is “inactive”.
The value for SIKLGILEMCKA was “inactive”; that for RVKSKDANSGGSMVCASRVL was “inactive”; that for TADRQGYSFEC was “inactive”.
The value for YRRLCGDCGFGTLRLDLLFV was “inactive”.
For CELGNIVHS the value was “inactive”.
Regarding MHWCN, the amyloid nucleation score was 0.228 ± 0.82.
For ALQLRVPDDVWLYVCYSRMN the value was “inactive”; for IMKCICVYVFINCHKWDVHA, “inactive”.
The value for NQLYSWWRFYGLNS was “inactive”.
For MLIYSIVLGFKFSPPGFTSN, the amyloid nucleation score entry is “inactive”.
With SCMGFVRQANIVG, the amyloid nucleation score result was “inactive”.
The value for MTYGLFVIYMRGGSNLMLHV was “inactive”; that for ENSIVADTGPAV was “inactive”; that for GISWILSVGGCTSRAWLWSW was “inactive”.
The value for SLVSFFCHVGNKWFNHDFPI was “inactive”.
The value for FWFHLADMVECKCIDVLYYL was “inactive”; that for VSPRRGHNVYLIVAARWCVA was “inactive”; that for LVFTWYFMCNVMGIFDRGTR was 2.06 ± 0.094.
With NYALWFANI, the amyloid nucleation score result is “inactive”.
The value for EVDLLSVNPGVYWDLDWIWF was -0.292 ± 0.88.
With PFWSGMIPIIEDPISGAL, the amyloid nucleation score result was “inactive”.
The value for YVCGLRRKSLVGKLYSIGLS was “inactive”.
Take VCSSINPFQNMTSFKVWIKS: the amyloid nucleation score entry was “inactive”.
For INTNAYSGLEIYRYSTIAKG the value was “inactive”; for ARTGYNGYQFRSGRALEITG, “inactive”.
Consider SAGWHTYRIKHPVSFVGKTI, for which the amyloid nucleation score result was “inactive”.
With YSKRSLDYI, the amyloid nucleation score entry is “inactive”.
The value for HDTPFMCV was “inactive”.
For ITGVFCTSHVRFNINFKLWE the value was 1.97 ± 0.063.
For LTSLSKSFCNNVHAYSDFLH the value was “inactive”.
Regarding FMKSRINIRIALWCF, the amyloid nucleation score result was “inactive”.
LVYAKNMLFDNKDWCV: the amyloid nucleation score entry is “inactive”.
Regarding VWQRAKSSTIGPLIW, the amyloid nucleation score result was “inactive”.
In the case of CMAMSFPWWWYTGIITYSL, the amyloid nucleation score entry was “inactive”.
On to LEPDNYTLGGTKSTTTFAHR, for which the amyloid nucleation score entry was “inactive”.
For SFSSLQFVNIATPHY the value was 0.42 ± 0.2.
GNKQVVNWDGYF: the amyloid nucleation score was -0.431 ± 0.96.
The value for SGSAQLECASSRAYVMIVHL was 0.425 ± 0.18.
Regarding CYQSLECAIMGYGLYVYSWC, the amyloid nucleation score entry is “inactive”.
The value for CLVTLVLTKFWCMCASSAVD was “inactive”.
As to MWGSM, the amyloid nucleation score entry was “inactive”.
The value for NRRKLYKGSCGLTFRGSRER was “inactive”; that for VYAKVMSCGYGQRCVMEWFE was “inactive”.
Turning to VLGVVT, the amyloid nucleation score result was “inactive”.
Regarding LVCGPI, the amyloid nucleation score result was “inactive”.
For GVGGPDGCTGNDTFMRQYTN the value was “inactive”; for SFTMMRSFSA, “inactive”.
For VQLPVIVSAPPI the value was -0.421 ± 1.1; for KLCYNNCVNLLII, 0.716 ± 0.13; for ARDNDLLNCMMLGLFSRLAF, “inactive”.
